From article PMC4072508, “Genome-Wide Prediction and Validation of Peptides That Bind Human Prosurvival Bcl-2 Proteins” (PLoS Computational Biology, 2014)

T1: Mcl-1, Q07820
T1 chain: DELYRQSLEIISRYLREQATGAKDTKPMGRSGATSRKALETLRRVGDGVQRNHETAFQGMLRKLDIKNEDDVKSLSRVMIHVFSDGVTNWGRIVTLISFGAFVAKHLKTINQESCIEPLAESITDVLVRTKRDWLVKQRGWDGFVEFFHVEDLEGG

T2: Bfl-1, Q16548
T2 chain: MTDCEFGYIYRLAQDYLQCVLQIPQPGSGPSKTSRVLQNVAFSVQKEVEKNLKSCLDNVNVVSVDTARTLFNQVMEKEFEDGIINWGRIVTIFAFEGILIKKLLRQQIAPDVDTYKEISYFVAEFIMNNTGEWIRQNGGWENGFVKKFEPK


Legend:
Experiment in all cases: peptide SPOT array, c-Myc-tagged receptor at 1 uM or 100 nM, anti-c-Myc-Cy3
[1] = target: Bcl-xL, Q07817
Chain of Bcl-xL, Q07817 (Q07817 1-209): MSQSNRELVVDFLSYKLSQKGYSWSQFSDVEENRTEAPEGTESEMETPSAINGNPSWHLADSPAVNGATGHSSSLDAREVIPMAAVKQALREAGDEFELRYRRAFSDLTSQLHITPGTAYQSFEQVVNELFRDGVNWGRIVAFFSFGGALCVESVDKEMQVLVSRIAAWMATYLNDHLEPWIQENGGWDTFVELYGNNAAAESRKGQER

[2] = target: T1, Mcl-1, Q07820
[3] = target: T2, Bfl-1, Q16548

SPOT signal as a fraction of Bim BH3's signal on the same receptor and array [1] | SPOT signal as a fraction of Bim BH3's signal on the same receptor and array [2] | SPOT signal as a fraction of Bim BH3's signal on the same receptor and array [3] | Binder
0.06 | 0.04 | 0.07 | LTETSLISGNLHRILDITSCSVLWLN [FBXW5]
0.2 | 0.16 | 0.13 | AIILCNVCGNDCTDCDRFLHLHRRTK [MYCBP2]
0.91 | 0.72 | 0.86 | CGEWTRRSLHDRVLGRQLILPTDKGV [FAM149A]
0.16 | 0.08 | 0.11 | TETKATFGVHLKIVGDWTERFRDLLL [NOX4]
0.41 | 0.19 | 0.19 | ERLKGQLCDVLLIVLDQKFRAHKNVL [ZNF295]
0.75 | 0.54 | 0.54 | LALLAQPSHLMRQVLRSVFGHICSHL [MYBBP1A]
0.06 | 0.04 | 0.04 | QEQEQHVPFDIHTYLDQLVSRFPQLN [NCAPH2]
0.06 | 0.03 | 0.04 | SQEPLEKAQLDALVGDQLIQSHHYAA
0.1 | 0.11 | 0.08 | QRKHEGFERDLAALLDKVNSLGETAE [SPTAN1]
0.06 | 0.04 | 0.04 | VLLTLLVAAVLRCQGQDVQEAGSCVQ [COL2A1]
0.05 | 0.04 | 0.03 | HHSSQEMSSEDREYADSFGKCPGGRN [PCYT2]
0.49 | 0.51 | 0.56 | PYLSKHRADRDRRLGDFLNQESFDLA [SMPD2]
2.64 | 1.37 | 1.71 | TAAAAYRGAHLRGRGRTVYNTFRAAA
0.06 | 0.05 | 0.04 | QCPIFRLGDIFRETLDNFSDVAIQGG [P2RX7]
0.07 | 0.07 | 0.04 | MSLFLRVVFSFTMFGDLFEEEYSTVS [USP40]
0.05 | 0.03 | 0.06 | NNNMDVESRTDATMGDTLASRGLLDA [SEC16A]

SPOT signal as a fraction of Bim BH3's signal on the same receptor and array [1] | SPOT signal as a fraction of Bim BH3's signal on the same receptor and array [2] | SPOT signal as a fraction of Bim BH3's signal on the same receptor and array [3] | Binder
0.06 | 0.05 | 0.08 | LFWTPLLVVLLAGLLDTEAQQTTLHP [SGCA]
0.1 | 0.06 | 0.04 | SEIMHSFAKCIEVMLDGCLNNEHFEE [IPO5]
0.48 | 0.84 | 0.44 | LMARPAVALHFQSILDGFKEAVRYVL [SOS2]
0.1 | 0.08 | 0.06 | AFGLGDLPNLLGLVGDQLGDTERKRR [ADAMTS14]
1.16 | 0.75 | 0.52 | RVCPYYLSRNLKQQLDIIFMPYNYLL [RTEL1]
0.06 | 0.04 | 0.03 | SQEPLEKAQLLALVLDQLIQSHHYAA
2.76 | 1.35 | 1.47 | GTAVAYRGAHDRGRGRAVYNTFRAAP
0.09 | 0.05 | 0.04 | SKEVAILCSFLLGLGDSCFNTQLLSI [MFSD11]
0.86 | 0.53 | 0.49 | AEVMRQRGINDRYLGKVLELVLRSPA [KIAA0664]
0.1 | 0.12 | 0.07 | LALMMQLARELKTLARDLGMAVVVTN [RAD51L3]
0.07 | 0.05 | 0.04 | THFLDEEVKLIKKMLDHLTNLHRLGG [FTL]
0.06 | 0.05 | 0.04 | MSILTIASAVLEFVGDGIYNNTMGHV [TAP1]
0.09 | 0.07 | 0.05 | AGYELLIQKFLSLYLDQIDMHRKFVV [ISOC1]
0.35 | 0.25 | 0.23 | YIVLGLRKTTLQKVLKEVAELVGRVG [NLRX1]
0.07 | 0.06 | 0.05 | SHFVACMTAILNQMGDQHYSFYIETF [DOCK2]
0.83 | 0.44 | 0.43 | KLALEQRCREDRARGRRLEETLPRRI [KIF19]
